Data as given in the supplement of paper PMC9112550, “Optimization of the antimicrobial peptide Bac7 by deep mutational scanning” (BMC Biology, 2022).

system: Escherichia coli TOP10; experiment: shrunken log2 fold change of peptide-encoding DNA abundance (4.5 h post-induction vs induction); higher = less antimicrobial activity (less host growth inhibition); details: time post-induction: 4.5 h; library: site-saturation at positions 5, 18, 19, 20
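Further: peptides expressed intracellularly from a pBAD plasmid library in pooled LB shake-flask culture, induced with 0.3% L-arabinose, DNA abundance read by NGS, three biological replicates, DESeq2 with apeglm shrinkage.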

Sequence | shrunken log2 fold change
RRIRDRPPRLPRPRPRPFDIPRP | 0.289
RRIRIRPPRLPRPRPRPYREPRP | -0.0673
RRIRDRPPRLPRPRPRPQEFPRP | -0.0529
RRIRDRPPRLPRPRPRPKMNPRP | -0.366
RRIRCRPPRLPRPRPRPKRAPRP | 0.778
RRIRYRPPRLPRPRPRPVGTPRP | 0.238
RRIRDRPPRLPRPRPRPHKTPRP | -0.0521
RRIRMRPPRLPRPRPRPTSNPRP | 0.00211
RRIRTRPPRLPRPRPRPGITPRP | -0.104
RRIRERPPRLPRPRPRPSGSPRP | 0.0459
RRIRDRPPRLPRPRPRPFMRPRP | 0.05
RRIRSRPPRLPRPRPRPSSQPRP | 0.0487
RRIRRRPPRLPRPRPRPATYPRP | -0.0435
RRIRKRPPRLPRPRPRPFIWPRP | -0.0554
RRIRRRPPRLPRPRPRPQIAPRP | 0.31
RRIRIRPPRLPRPRPRPRVIPRP | -0.209
RRIRQRPPRLPRPRPRPQCEPRP | -0.234
RRIRDRPPRLPRPRPRPQNIPRP | -0.126
RRIRCRPPRLPRPRPRPRMIPRP | 0.306
RRIRDRPPRLPRPRPRPEMTPRP | 0.679
RRIRSRPPRLPRPRPRPFWLPRP | 0.26
RRIRYRPPRLPRPRPRPKRDPRP | -0.0103
RRIRVRPPRLPRPRPRPPRTPRP | 0.331
RRIRQRPPRLPRPRPRPDSGPRP | -0.0171
RRIRPRPPRLPRPRPRPPPFPRP | 0.277

Sequence | shrunken log2 fold change
RRIRTRPPRLPRPRPRPDIDPRP | 0.0151
RRIRHRPPRLPRPRPRPPCIPRP | 0.00475
RRIRTRPPRLPRPRPRPQDQPRP | 0.0516
RRIRDRPPRLPRPRPRPLEVPRP | 0.121
RRIRRRPPRLPRPRPRPQEDPRP | 0.108
RRIRERPPRLPRPRPRPCKCPRP | -0.01
RRIRFRPPRLPRPRPRPRRFPRP | 0.0577
RRIRERPPRLPRPRPRPMISPRP | -0.11
RRIRYRPPRLPRPRPRPGRAPRP | 0.17
RRIRDRPPRLPRPRPRPRVNPRP | -0.149
RRIRNRPPRLPRPRPRPLDPPRP | -0.117
RRIRKRPPRLPRPRPRPYWDPRP | -0.219
RRIRWRPPRLPRPRPRPATLPRP | -0.0879
RRIRVRPPRLPRPRPRPFTYPRP | -0.105
RRIRYRPPRLPRPRPRPYIDPRP | -0.103
RRIRMRPPRLPRPRPRPPIFPRP | 0.00125
RRIRDRPPRLPRPRPRPWWYPRP | -0.738
RRIRGRPPRLPRPRPRPQDEPRP | 0.111
RRIRDRPPRLPRPRPRPSGMPRP | -0.0709
RRIRARPPRLPRPRPRPCGHPRP | 0.0628
RRIRWRPPRLPRPRPRPREPPRP | 0.35
RRIRRRPPRLPRPRPRPQQEPRP | -0.0236
RRIRDRPPRLPRPRPRPNLVPRP | -0.0615
RRIRRRPPRLPRPRPRPSQQPRP | -0.0599
RRIRCRPPRLPRPRPRPERTPRP | 0.766

Sequence | shrunken log2 fold change
RRIRVRPPRLPRPRPRPHWFPRP | -0.11
RRIRMRPPRLPRPRPRPKDTPRP | 1.86
RRIRQRPPRLPRPRPRPHFAPRP | 0.0503
RRIRIRPPRLPRPRPRPKEQPRP | 0.0307
RRIRHRPPRLPRPRPRPEKRPRP | -0.01
RRIRGRPPRLPRPRPRPTWIPRP | 0.25
RRIRKRPPRLPRPRPRPDPMPRP | 0.86
RRIRVRPPRLPRPRPRPSTYPRP | -0.288
RRIRWRPPRLPRPRPRPCGVPRP | 0.0164
RRIRARPPRLPRPRPRPTKIPRP | 0.272
RRIRWRPPRLPRPRPRPEEKPRP | 0.584
RRIRTRPPRLPRPRPRPGHHPRP | -0.27
RRIRCRPPRLPRPRPRPIREPRP | -0.0298
RRIRYRPPRLPRPRPRPYRRPRP | -0.00141
RRIRYRPPRLPRPRPRPGPIPRP | -0.0295
RRIRWRPPRLPRPRPRPNGSPRP | 0.0647
RRIRTRPPRLPRPRPRPLCRPRP | -0.13
RRIRWRPPRLPRPRPRPQPQPRP | 0.417
RRIRTRPPRLPRPRPRPLIWPRP | 0.361
RRIRARPPRLPRPRPRPIPIPRP | 0.354
RRIRKRPPRLPRPRPRPDHCPRP | 0.00904
RRIRWRPPRLPRPRPRPDWWPRP | 0.0352
RRIRIRPPRLPRPRPRPIHYPRP | -0.791
RRIRHRPPRLPRPRPRPKATPRP | 0.00379
RRIRKRPPRLPRPRPRPQLRPRP | 0.2
